One experiment addresses T1, His6-Cps2D wild-type (Streptococcus pneumoniae type 2 (D39), UniProt Q9ZII6 1-226).
T1 construct: autophosphorylating tyrosine kinase Cps2D of Streptococcus pneumoniae type 2 (D39), approximately 226 amino acids; also called Cps2D WT; pCPS03; source: recombinant, purified to homogeneity; plasmid pCPS03 (E. coli plasmid pHis-parallel 2); cloning and purification in the Supplementary Information
T1 sequence: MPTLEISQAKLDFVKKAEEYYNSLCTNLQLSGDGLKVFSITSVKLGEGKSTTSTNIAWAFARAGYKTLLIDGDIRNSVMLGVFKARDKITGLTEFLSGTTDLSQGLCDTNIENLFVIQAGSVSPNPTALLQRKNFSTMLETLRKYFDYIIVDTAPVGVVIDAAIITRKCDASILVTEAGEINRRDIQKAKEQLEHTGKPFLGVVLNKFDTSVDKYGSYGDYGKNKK
The experiment is described as follows: BLI; Blitz system; His6-Cps2D protein (1 μM) immobilised on Ni-NTA sensors; GST-SpAdK 2.5-50 μM; buffer D (250 mM NaCl, 50 mM Tris-HCl, pH 7.5, 1 mM DTT) with 5 mM Mg-ATP; GST and sensor background subtracted; steady-state analysis; apparent Kd. The note with it: both partners purified.

Experiment [1] deals with T2, His6-Cps2D 3Y3E (Y215E/Y218E/Y221E) (Streptococcus pneumoniae type 2 (D39), UniProt Q9ZII6 1-226, Y215E | Y218E | Y221E).
T2 construct: tyrosine kinase Cps2D of Streptococcus pneumoniae type 2 (D39), triple phosphomimetic mutant of the C-terminal tyrosine cluster; also called pCPS04; source: recombinant, purified to homogeneity; plasmid pCPS04 (E. coli plasmid pHis-parallel 2); cloning and purification in the Supplementary Information
T2 sequence: T1 sequence with Y215E, Y218E, Y221E
The experiment is described as above. Particulars: both partners purified.

Numbering of substitutions follows the chain as printed.

B1: GST-SpAdK (Streptococcus pneumoniae adenylate kinase, GST-tagged) (enzyme)
chain: MNLLIMGLPGAGKGTQAAKIVEQFHVAHISTGDMFRAAMANQTEMGVLAKSYIDKGELVPDEVTNGIVKERLSQDDIKETGFLLDGYPRTIEQAHALDKTLAELGIELEGIINIEVNPDSLLERLSGRIIHRVTGETFHKVFNPPVDYKEEDYYQREDDKPETVKRRLDVNIAQGEPIIAHYRAKGLVHDIEGNQDINDVFSDIEKVLTNLK
notes: adenylate kinase of Streptococcus pneumoniae (SpAdK); also called glutathione S-transferase (GST)-SpAdK; pGST-ADK; source: recombinant, purified; plasmid pGST-ADK (E. coli plasmid pGST-parallel 2); cloning and purification in the Supplementary Information
On to B1, for which the Kd with His6-Cps2D wild-type came to 31 ± 5 µM; in experiment [1] it was 40 ± 17 µM.

For the origin of these results see paper PMC6123713, “Adenylate kinase potentiates the capsular polysaccharide by modulating Cps2D in Streptococcus pneumoniae D39” (Experimental & Molecular Medicine, 2018).
